We go through one molecule from patent US20080227698A1, “OLIGOPEPTIDES FOR TREATMENT OF OSTEOPOROSIS AND OTHER BONE DISEASES AND METHODS THEREOF” (Washington University, priority 2005, published 2008).

Experiment [1] has as its target T1, LRP6 (Homo sapiens, UniProt O75581). Put plainly: ^125I-DKK1 binding to LRP6-transduced HT1080 cells. Details: plasmid pCS-Myc-hLRP6 containing the full-length human LRP6 cDNA; HA; expressed in transfected cells; host or cells: human HT1080 cells, stably transduced (pLNCX2 retroviral vector). The note with it: 500 nM competitor, ^125I-DKK1 5 nM, 3 hours at 4° C. Here is the method:
Cells (2×10^5) were seeded into 12-well dishes 1 day prior to assay. Ligand-binding buffer (minimal Eagle's medium containing 0.6% BSA with a different concentration of radioligand, 0.6 ml/well) was added to cell monolayers, in the absence or the presence of 500 nM unlabeled RAP or 500 nM unlabeled Mesd, followed with incubation for 0-4 hours at 4° C. Thereafter, overlying buffer containing unbound ligand was removed, and cell monolayers were washed and lysed in low-SDS lysis buffer (62.5 mM Tris-HCl pH 6.8, 0.2% SDS, 10% v/glycerol) and counted.
RAP is a receptor antagonist for members of the LDLR family, and is able to inhibit the binding of most known ligands of the LDLR family members. […] In these experiments, Serum-free conditioned medium was harvested from HEK293 cells transiently transfected with cDNA for human Myc-DKK1 and allowed to bind to LRP6-transduced HT1080 cells (B,C) and control cells (A) in the absence (A,B) or presence (C) of 1 μM Mesd. Cell-surface-bound Myc-tagged DKK proteins were fixed and detected by immunofluorescence staining with anti-Myc antibody. […] Binding of 125I-DKK1 (5 nM) to LRP6-transduced HT1080 cells or the control cells was carried out for 3 hours at 4° C. in the absence (total) or presence of 500 nM RAP or 500 nM Mesd. […] LRP6-mediated 125I-Mesd (5 nM) degradation was carried out for 4 hours at 37° C. in the absence or presence of 500 nM RAP or 500 nM Mesd. Values are the means of triple determinations with the s.d. indicated by error bars. Bar, 10 μm.

Another experiment deals with LRP5 (Homo sapiens, UniProt O75197). Put plainly: ^125I-DKK1 binding to LRP5, competition by Mesd or oligopeptide (FIG. 10B). The procedure:
In order to investigate the binding of Mesd polypeptide and an Mesd oligopeptide to either LRP5 or LRP6, binding assays were performed using ^125I-Mesd or ^125I-DKK1 (FIG. 10).

Experiment [2] addresses T1, LRP6. Put plainly: Cell surface Myc-DKK1 binding and immunodetection on LRP6-transduced HT1080 cells. The note with it: 1 μM Mesd, room temperature 60 minutes, immunofluorescence. Further details: plasmid pCS-Myc-hLRP6 containing the full-length human LRP6 cDNA; HA; expressed in transfected cells; host or cells: human HT1080 cells, stably transduced (pLNCX2 retroviral vector). The source says: Values are the means of triple determinations with the s.d. indicated by error bars. Bar, 10 μm.

For experiment [3], the system named is LRP6. Put plainly: ^125I-Mesd cell surface ligand binding to LRP6-transduced HT1080 cells. Further details: species or system human. To be noted: HT1080 cells transduced with vector alone, ^125I-Mesd 5 nM, 4° C. The procedure: To examine whether Mesd binds with high affinity to […] at the cell surface, cell surface ligand binding experiments were performed with cells stably transduced with LRP6 cDNA. Human HT1080 cells, which express undetectable levels of LRP6, were transduced with a viral vector alone (pLNCX2) or with vector containing LRP6 cDNA (Li, Y., Oncogene 23: 9129-9135, 2004) and used for ^125I-Mesd binding (FIG. 1A). ^125I-Mesd (5 nM) reached maximal binding after 2 hours incubation at 4° C. with LRP6-expressing HT1080 cells (FIG. 1A).
(A) Time course of ^125I-Mesd (5 nM) binding to LRP6-transduced HT1080 cells and the control cells. Assay was carried out for the indicated periods at 4° C. in the absence (total) or presence of 500 nM Mesd (non-specific). (B) Saturation binding of ^125I-Mesd to LRP6-transduced HT1080 cells and the control cells. Assay was carried out at indicated concentrations for 3 hours at 4° C. in the absence (total) or presence (non-specific) of 500 nM Mesd. (C) Scatchard plots of data in B. All values are the average of triple determinations with the s.d. indicated by error bars.
Cells (2×10^5) were seeded into 12-well dishes 1 day prior to assay. […] Thereafter, overlying buffer containing unbound ligand was removed, and cell monolayers were washed and lysed in low-SDS lysis buffer (62.5 mM Tris-HCl pH 6.8, 0.2% SDS, 10% v/glycerol) and counted.

T1 sequence (O75581 20-1613): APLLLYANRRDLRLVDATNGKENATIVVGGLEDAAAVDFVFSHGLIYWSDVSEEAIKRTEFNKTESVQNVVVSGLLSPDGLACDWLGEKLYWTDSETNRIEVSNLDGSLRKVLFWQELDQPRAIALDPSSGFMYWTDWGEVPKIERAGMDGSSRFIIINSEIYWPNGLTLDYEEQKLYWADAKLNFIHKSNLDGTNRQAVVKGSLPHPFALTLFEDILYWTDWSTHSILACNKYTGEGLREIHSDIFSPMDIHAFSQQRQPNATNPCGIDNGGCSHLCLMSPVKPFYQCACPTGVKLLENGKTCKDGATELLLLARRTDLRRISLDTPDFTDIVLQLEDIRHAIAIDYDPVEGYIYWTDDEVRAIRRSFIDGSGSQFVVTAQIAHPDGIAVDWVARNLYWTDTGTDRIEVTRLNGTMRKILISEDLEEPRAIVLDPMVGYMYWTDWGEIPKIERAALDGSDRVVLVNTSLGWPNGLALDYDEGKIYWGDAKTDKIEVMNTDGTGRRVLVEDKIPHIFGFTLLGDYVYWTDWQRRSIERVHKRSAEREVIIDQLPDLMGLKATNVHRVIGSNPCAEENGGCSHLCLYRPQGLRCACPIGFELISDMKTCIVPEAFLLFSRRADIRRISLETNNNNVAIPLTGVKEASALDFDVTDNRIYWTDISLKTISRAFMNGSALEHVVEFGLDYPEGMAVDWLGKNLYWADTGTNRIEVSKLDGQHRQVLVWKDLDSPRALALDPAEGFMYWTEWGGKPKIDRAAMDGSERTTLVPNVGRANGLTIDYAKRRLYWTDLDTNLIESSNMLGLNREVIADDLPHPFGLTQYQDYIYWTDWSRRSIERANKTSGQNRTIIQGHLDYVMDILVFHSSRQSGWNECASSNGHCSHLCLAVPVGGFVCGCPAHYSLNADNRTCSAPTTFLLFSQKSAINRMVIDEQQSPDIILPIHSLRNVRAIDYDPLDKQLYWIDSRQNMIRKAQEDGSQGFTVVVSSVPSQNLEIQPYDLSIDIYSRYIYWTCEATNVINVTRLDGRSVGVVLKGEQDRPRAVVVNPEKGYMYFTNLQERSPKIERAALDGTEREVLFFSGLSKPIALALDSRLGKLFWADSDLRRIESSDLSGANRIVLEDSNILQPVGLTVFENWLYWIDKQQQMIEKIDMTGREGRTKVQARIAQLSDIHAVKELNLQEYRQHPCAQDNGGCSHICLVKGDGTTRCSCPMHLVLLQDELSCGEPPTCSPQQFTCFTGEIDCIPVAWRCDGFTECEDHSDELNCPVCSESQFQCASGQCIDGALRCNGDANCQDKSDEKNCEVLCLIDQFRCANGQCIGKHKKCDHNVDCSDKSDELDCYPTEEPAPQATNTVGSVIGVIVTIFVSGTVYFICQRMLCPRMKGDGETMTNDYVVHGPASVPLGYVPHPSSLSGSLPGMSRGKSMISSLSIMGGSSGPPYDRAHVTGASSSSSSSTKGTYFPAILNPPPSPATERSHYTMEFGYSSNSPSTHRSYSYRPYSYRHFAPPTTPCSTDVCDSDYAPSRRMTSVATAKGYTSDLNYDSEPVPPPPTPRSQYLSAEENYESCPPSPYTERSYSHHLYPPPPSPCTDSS
LRP5, sequence (O75197 32-1615): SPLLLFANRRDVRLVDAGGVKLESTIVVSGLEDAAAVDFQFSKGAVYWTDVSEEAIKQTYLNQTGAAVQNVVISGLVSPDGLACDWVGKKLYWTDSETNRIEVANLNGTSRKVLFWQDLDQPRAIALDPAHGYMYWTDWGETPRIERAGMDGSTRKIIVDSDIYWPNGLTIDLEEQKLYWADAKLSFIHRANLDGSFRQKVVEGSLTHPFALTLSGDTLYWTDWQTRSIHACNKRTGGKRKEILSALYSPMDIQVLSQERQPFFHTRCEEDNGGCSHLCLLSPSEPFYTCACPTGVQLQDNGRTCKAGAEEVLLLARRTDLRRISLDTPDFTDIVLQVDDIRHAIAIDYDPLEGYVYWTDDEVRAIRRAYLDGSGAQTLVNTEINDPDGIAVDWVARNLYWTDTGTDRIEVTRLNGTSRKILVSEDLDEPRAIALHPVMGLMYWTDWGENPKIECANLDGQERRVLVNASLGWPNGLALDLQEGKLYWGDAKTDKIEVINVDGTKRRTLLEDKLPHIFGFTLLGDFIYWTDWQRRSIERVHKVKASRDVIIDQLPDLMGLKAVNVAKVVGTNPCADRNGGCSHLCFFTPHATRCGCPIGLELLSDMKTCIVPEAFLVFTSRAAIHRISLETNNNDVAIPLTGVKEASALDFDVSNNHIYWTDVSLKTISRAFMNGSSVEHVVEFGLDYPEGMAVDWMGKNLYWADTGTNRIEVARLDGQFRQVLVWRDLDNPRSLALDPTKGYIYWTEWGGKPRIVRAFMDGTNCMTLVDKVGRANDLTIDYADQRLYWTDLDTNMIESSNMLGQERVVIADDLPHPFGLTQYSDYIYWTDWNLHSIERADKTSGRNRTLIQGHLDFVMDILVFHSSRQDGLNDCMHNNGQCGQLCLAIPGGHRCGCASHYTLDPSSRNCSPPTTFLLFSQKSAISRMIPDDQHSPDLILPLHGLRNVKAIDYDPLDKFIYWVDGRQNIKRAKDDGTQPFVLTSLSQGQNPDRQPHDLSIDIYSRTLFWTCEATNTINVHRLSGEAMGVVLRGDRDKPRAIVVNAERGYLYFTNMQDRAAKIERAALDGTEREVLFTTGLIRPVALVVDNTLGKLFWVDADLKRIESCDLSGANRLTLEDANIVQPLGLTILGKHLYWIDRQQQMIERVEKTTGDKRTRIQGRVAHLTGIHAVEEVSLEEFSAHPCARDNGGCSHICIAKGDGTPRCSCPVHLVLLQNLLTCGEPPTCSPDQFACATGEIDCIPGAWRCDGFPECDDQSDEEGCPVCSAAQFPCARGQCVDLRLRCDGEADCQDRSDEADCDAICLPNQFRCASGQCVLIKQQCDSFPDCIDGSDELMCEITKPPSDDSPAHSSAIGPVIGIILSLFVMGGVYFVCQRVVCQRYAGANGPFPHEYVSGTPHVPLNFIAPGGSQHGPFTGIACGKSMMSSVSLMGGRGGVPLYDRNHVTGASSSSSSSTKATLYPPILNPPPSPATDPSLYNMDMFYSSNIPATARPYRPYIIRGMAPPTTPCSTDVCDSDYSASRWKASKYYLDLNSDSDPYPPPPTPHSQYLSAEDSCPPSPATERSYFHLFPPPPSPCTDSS

B1: Mesd: recombinant wild-type mouse Mesd, polyhistidine tail at the N-terminus, lacks the signal peptide, expressed in E. coli (protein)
chain: ADTPGEATPPPRKKKDIRDYNDADMARLLEQWEKDDDIEEGDLPEHKRPSAPIDFSKLDPGKPESILKMTKKGKTLMMFVTVSGNPTEKETEEITSLWQGSLFNANYDVQRFIVGSDRAIFMLRDGSYAWEIKDFLVSQDRCAEVTLEGQMYPGKGGGSKEKNKTKPEKAKKKEGDRKPRASKEDNRAGSRREDL
modifications: left off: small tags and cut ends
notes: recombinant wild-type mouse Mesd, polyhistidine tail at the N-terminus, lacks the signal peptide, expressed in E. coli
Consider B1, for which the “Effect of excess unlabeled competitor on increased DKK1 binding” value with LRP6 [1] was “abolished”. For the same molecule, the “Reduction in binding of ^125I-DKK1 to LRP5” value with LRP5 is given as “small but significant reduction”. For the same molecule, the “Effect on binding of Myc-DKK1 to LRP6 at the cell surface” value with LRP6 [2] is reported as “completely blocked”. The “^125I-Mesd binding to control cells (pLNCX2)” value in the experiment on LRP6 [3] is on record as “No significant ^125I-Mesd binding”.
